One data set has as its target T1, TgAaaH2 (Toxoplasma gondii, UniProt B2L7T2).
T1 construct: gene AaaH2; N-terminal 23 residues (predicted signal peptide) removed; N-terminal 6xHis tag (pET 45b) kept; E. coli BL21; full-length ORF 565 residues; primer text says begins at residue 23
T1 sequence (B2L7T2 23-565): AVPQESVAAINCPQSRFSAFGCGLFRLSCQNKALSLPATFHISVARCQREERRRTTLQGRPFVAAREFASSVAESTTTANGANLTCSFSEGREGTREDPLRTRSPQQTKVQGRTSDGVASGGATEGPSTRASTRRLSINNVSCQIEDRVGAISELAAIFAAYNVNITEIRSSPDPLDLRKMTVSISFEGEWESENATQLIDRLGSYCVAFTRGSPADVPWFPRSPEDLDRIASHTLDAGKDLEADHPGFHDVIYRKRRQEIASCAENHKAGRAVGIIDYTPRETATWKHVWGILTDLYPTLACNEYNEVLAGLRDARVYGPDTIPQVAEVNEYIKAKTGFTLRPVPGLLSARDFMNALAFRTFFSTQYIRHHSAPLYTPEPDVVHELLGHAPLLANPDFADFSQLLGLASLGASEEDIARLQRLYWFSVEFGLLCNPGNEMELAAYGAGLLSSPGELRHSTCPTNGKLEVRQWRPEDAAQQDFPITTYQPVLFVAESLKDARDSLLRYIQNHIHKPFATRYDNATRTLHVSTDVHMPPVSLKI
Briefly: coupled dihydropteridine reductase assay, NADH oxidation at […] nm. The data set is classed as biochemical. The conditions noted are these: 50 µM amino acid (tyrosine in Figure 4B), 0-500 µM 6-MPH4, 500 µM NADH, 10 µM ferrous ammonium sulphate, 50 mM HEPES, pH 7.5, 32°C; range printed jointly for both enzymes, not assigned.

The target of another data set is T2, TgAaaH1 (Toxoplasma gondii, UniProt B2L7T1).
T2 construct: gene AaaH1; N-terminal 23 residues (predicted signal peptide) removed; N-terminal 6xHis tag (pET 45b) kept; E. coli BL21; full-length ORF 565 residues; primer text says begins at residue 23
T2 sequence (B2L7T1 23-565): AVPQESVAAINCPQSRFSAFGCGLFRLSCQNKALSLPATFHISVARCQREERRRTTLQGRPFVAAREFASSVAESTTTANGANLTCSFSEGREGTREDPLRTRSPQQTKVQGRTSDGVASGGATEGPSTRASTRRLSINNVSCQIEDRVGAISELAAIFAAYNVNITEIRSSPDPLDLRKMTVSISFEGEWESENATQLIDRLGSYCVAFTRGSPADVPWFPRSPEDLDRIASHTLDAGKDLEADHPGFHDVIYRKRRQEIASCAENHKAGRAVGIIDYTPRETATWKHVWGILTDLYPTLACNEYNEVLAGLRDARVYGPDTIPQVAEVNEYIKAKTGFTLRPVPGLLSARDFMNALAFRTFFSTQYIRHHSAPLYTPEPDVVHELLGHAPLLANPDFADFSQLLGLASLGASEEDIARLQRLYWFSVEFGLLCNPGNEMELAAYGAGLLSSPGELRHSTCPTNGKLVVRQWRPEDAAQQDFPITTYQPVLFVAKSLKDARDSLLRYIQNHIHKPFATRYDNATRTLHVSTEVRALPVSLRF
Described as above. The settings on record: 50 µM amino acid (tyrosine in Figure 4B), 0-500 µM 6-MPH4, 500 µM NADH, 10 µM ferrous ammonium sulphate, 50 mM HEPES, pH 7.5, 32°C; range printed jointly for both enzymes, not assigned. The data set is classed as biochemical.

Substrate in data set [1]: N[C@@H](Cc1ccc(O)cc1)C(=O)O
Briefly: purified protein. The class given is biochemical, Toxoplasma gondii. The conditions noted are these: 500 µM 6-MPH4, 500 µM NADH, 10 µM ferrous ammonium sulphate, 50 mM HEPES, pH 7.5, 32°C, 0-200 µM tyrosine, substrate inhibition at high concentration.

Substrate in data set [2]: N[C@@H](Cc1ccccc1)C(=O)O
Description: purified protein. The class given is biochemical, Toxoplasma gondii. The conditions noted are these: 500 µM 6-MPH4, 500 µM NADH, 10 µM ferrous ammonium sulphate, 50 mM HEPES, pH 7.5, 32°C, 0-200 µM phenylalanine, substrate inhibition at high concentration.

From article PMC2653193, “A Unique Dual Activity Amino Acid Hydroxylase in Toxoplasma gondii” (PLoS ONE, 2009) come the findings set out here.

Regarding `CC1CNc2nc(N)[nH]c(=O)c2N1` (stereo not shown) [6-MPH4], the Michaelis constant (Km) at TgAaaH2 and at TgAaaH1 was 310 to 318 µM throughout.

B1: TgAaaH1 (Toxoplasma gondii) (protein)
chain: AVPQESVAAINCPQSRFSAFGCGLFRLSCQNKALSLPATFHISVARCQREERRRTTLQGRPFVAAREFASSVAESTTTANGANLTCSFSEGREGTREDPLRTRSPQQTKVQGRTSDGVASGGATEGPSTRASTRRLSINNVSCQIEDRVGAISELAAIFAAYNVNITEIRSSPDPLDLRKMTVSISFEGEWESENATQLIDRLGSYCVAFTRGSPADVPWFPRSPEDLDRIASHTLDAGKDLEADHPGFHDVIYRKRRQEIASCAENHKAGRAVGIIDYTPRETATWKHVWGILTDLYPTLACNEYNEVLAGLRDARVYGPDTIPQVAEVNEYIKAKTGFTLRPVPGLLSARDFMNALAFRTFFSTQYIRHHSAPLYTPEPDVVHELLGHAPLLANPDFADFSQLLGLASLGASEEDIARLQRLYWFSVEFGLLCNPGNEMELAAYGAGLLSSPGELRHSTCPTNGKLVVRQWRPEDAAQQDFPITTYQPVLFVAKSLKDARDSLLRYIQNHIHKPFATRYDNATRTLHVSTEVRALPVSLRF
notes: N-terminal 23 residues (predicted signal peptide) removed; N-terminal 6xHis tag (pET 45b) kept; E. coli BL21; full-length ORF 565 residues; primer text says begins at residue 23
Take B1: in “purified protein [1]”, the Km stood at 1.25 ± 0.69 µM and the Vmax was determined as 0.137 ± 0.014 µmol/min/mg. In the data set “purified protein [2]”, the Km was found to be 2.45 ± 1.87 µM and the maximal velocity (Vmax) worked out at 0.125 ± 0.015 µmol/min/mg.

B2: TgAaaH2 (Toxoplasma gondii) (protein)
chain: AVPQESVAAINCPQSRFSAFGCGLFRLSCQNKALSLPATFHISVARCQREERRRTTLQGRPFVAAREFASSVAESTTTANGANLTCSFSEGREGTREDPLRTRSPQQTKVQGRTSDGVASGGATEGPSTRASTRRLSINNVSCQIEDRVGAISELAAIFAAYNVNITEIRSSPDPLDLRKMTVSISFEGEWESENATQLIDRLGSYCVAFTRGSPADVPWFPRSPEDLDRIASHTLDAGKDLEADHPGFHDVIYRKRRQEIASCAENHKAGRAVGIIDYTPRETATWKHVWGILTDLYPTLACNEYNEVLAGLRDARVYGPDTIPQVAEVNEYIKAKTGFTLRPVPGLLSARDFMNALAFRTFFSTQYIRHHSAPLYTPEPDVVHELLGHAPLLANPDFADFSQLLGLASLGASEEDIARLQRLYWFSVEFGLLCNPGNEMELAAYGAGLLSSPGELRHSTCPTNGKLEVRQWRPEDAAQQDFPITTYQPVLFVAESLKDARDSLLRYIQNHIHKPFATRYDNATRTLHVSTDVHMPPVSLKI
notes: as for B1
In the case of B2, in “purified protein [1]”, the Michaelis-Menten constant (Km) stood at 5.50 ± 3.26 µM and the Vmax was 0.123 ± 0.001 µmol/min/mg. In the data set “purified protein [2]”, the Michaelis constant (Km) was found to be 14.8 ± 6.4 µM and the maximum rate (Vmax) was determined as 0.145 ± 0.037 µmol/min/mg.

As a reminder, the Km is the substrate concentration at which the rate is half of its maximum. For orientation: Vmax means the top rate of the reaction or transport when substrate is in excess.
